Test results as given in paper PMC10350107, “Mechanism of DNA unwinding by hexameric MCM8–9 in complex with HROB” (Research Square, 2023).

B1: human MCM8–9 complex, wild type (FLAG-MCM8 with MBP-MCM9, co-expressed) (complex)
chain 1: MNGEYRGRGFGRGRFQSWKRGRGGGNFSGKWREREHRPDLSKTTGKRTSEQTPQFLLSTKTPQSMQSTLDRFIPYKGWKLYFSEVYSDSSPLIEKIQAFEKFFTRHIDLYDKDEIERKGSILVDFKELTEGGEVTNLIPDIATELRDAPEKTLACMGLAIHQVLTKDLERHAAELQAQEGLSNDGETMVNVPHIHARVYNYEPLTQLKNVRANYYGKYIALRGTVVRVSNIKPLCTKMAFLCAACGEIQSFPLPDGKYSLPTKCPVPVCRGRSFTALRSSPLTVTMDWQSIKIQELMSDDQREAGRIPRTIECELVHDLVDSCVPGDTVTITGIVKVSNAEEGSRNKNDKCMFLLYIEANSISNSKGQKTKSSEDGCKHGMLMEFSLKDLYAIQEIQAEENLFKLIVNSLCPVIFGHELVKAGLALALFGGSQKYADDKNRIPIRGDPHILVVGDPGLGKSQMLQAACNVAPRGVYVCGNTTTTSGLTVTLSKDSSSGDFALEAGALVLGDQGICGIDEFDKMGNQHQALLEAMEQQSISLAKAGVVCSLPARTSIIAAANPVGGHYNKAKTVSENLKMGSALLSRFDLVFILLDTPNEHHDHLLSEHVIAIRAGKQRTISSATVARMNSQDSNTSVLEVVSEKPLSERLKVVPGETIDPIPHQLLRKYIGYARQYVYPRLSTEAARVLQDFYLELRKQSQRLNSSPITTRQLESLIRLTEARARLELREEATKEDAEDIVEIMKYSMLGTYSDEFGNLDFERSQHGSGMSNRSTAKRFISALNNVAERTYNNIFQFHQLRQIAKELNIQVADFENFIGSLNDQGYLLKKGPKVYQLQTM
chain 2: not shown
notes: human MCM8; human MCM9; Written as the heterodimer (theoretical 266 kDa with tags; hexamer 798 kDa); in solution a mix of dimers, tetramers and hexamers; also called MCM8-MCM9; FLAG-MCM8-MBP-MCM9 heterodimer complex; source: Sf9 insect cells, co-expressed; hexamer-rich pool with a Superose 6 step) or captured from lysate on amylose resin and washed; not shown: FLAG, N-terminal, kept; MBP, …

Assays:
[1] = target: the molecule itself; test: negative staining transmission electron microscopy; human MCM8–9 at 220 nM; ring-like particles, heterodimers to hexameric rings
[2] = target: B1; test: pull-down; MBP-MCM9/FLAG-MCM8 from Sf9 lysate immobilised on amylose resin and washed (300 mM NaCl, 0.1% NP40); incubated with 1 μg purified HROB wild type or mutant in 50 mM Tris-HCl pH 7.5, 100 mM NaCl, 3 mM EDTA, BSA, 1 h at 4 °C; maltose elution, western blot; conditions: both partners purified

| binding result [2] | Binder | binding result [1] |
| --- | --- | --- |
|  | B1 | binds |
| binds | HROB-L405D (natural protein, human, UniProt Q8N3J3-4 1-646, looked up, human HROB as in m1 (closest to isoform 4, lacks Q-484, T126P) with L405D in the disordered region that contacts MCM8) MACSLQKLFAVEEEFEDEDFLSAVEDAENRFTGSLPVNAGRLRPVSSRPQETVQAQSSRLLLLHPTAPSEALGLPDLDLCLPASSTPSADSRPSCIGAAPLRPVSTSSSWIGNQRRVTVTEVLREPARPQSSALHPLLTFESQQQQVGGFEGPEQDEFDKVLASMELEEPGMELECGVSSEAIPILPAQQREGSVLAKKARVVDLSGSCQKGPVPAIHKAGIMSAQDESLDPVIQCRTPRPPLRPGAVGHLPVPTALTVPTQQLHWEVCPQRSPVQALQPLQAARGTIQSSPQNRFPCQPFQSPSSWLSGKAHLPRPRTPNSSCSTPSRTSSGLFPRIPLQPQAPVSSIGSPVGTPKGPQGALQTPIVTNHLVQLVTAASRTPQQPTHPSTRAKTRRFPGPAGIDPHQQSGRSLEDIMVSAPQTPTHGALAKFQTEIVASSQASVEEDFGRGPWLTMKSTLGLDERDPSCFLCTYSIVMVLRKAALKQLPRNKVPNMAVMIKSLTRSTMDASVVFKDPTGEMQGTVHRLLLETCQNELKPGSVLLLKQIGVFSPSLRNHYLNVTPNNLVHIYSPDSGDGSFLKPSQPFPKDSGSFQHDVAAKPEEGFRTAQNLEAEASPEEELPEADDLDGLLSELPEDFFCGTSS |  |
